This series deals with the molecule itself. The series can be described thus: SEC; native whole-cell lysate of NIH3T3 AP1 KO cells on Yarra SEC-2000 (1 kDa to 300 kDa); fractions immunoblotted. For orientation: In gel filtration, larger molecules generally elute earlier.

The text below walks through data of paper doi:10.1101/2024.10.01.616059 (bioRxiv, 2024).

B1: phosphoribosyl pyrophosphate synthetase 2 (PRPS2), mouse, endogenous (enzyme, UniProt Q9CS42 1-318, looked up)
chain: MPNIVLFSGSSHQDLSQRVADRLGLELGKVVTKKFSNQETSVEIGESVRGEDVYIIQSGCGEINDNLMELLIMINACKIASSSRVTAVIPCFPYARQDKKDKSRAPISAKLVANMLSVAGADHIITMDLHASQIQGFFDIPVDNLYAEPAVLQWIRENITEWRNCIIVSPDAGGAKRVTSIADRLNVEFALIHKERKKANEVDRMVLVGDVKDRVAILVDDMADTCGTICHAADKLLSAGATKVYAILTHGIFSGPAISRINSAAFEAVVVTNTIPQEDKMKHCSKIQVIDISMILAEAIRRTHNGESVSYLFSHVPL
notes: PRPS2, mouse, endogenous protein of NIH3T3 cells and mouse tissue; also called P2; source: endogenous, NIH3T3 (parental and CRISPR knockout clones), native lysate; endogenous, C57BL/6 mouse kidney, native lysate
With B1, the stoichiometry N – broadly, a count of units in the complex or per binding partner – is 2.
